{"source": "the RNAGym collection of RNA variant scans (doi:10.7554/elife.90254)", "parents": {"B1": {"name": "LINE1-mini (parent)", "chain": "GGCAGAGCUCAACACAGCGUGGCAAAGUGGCUGUGGCUAGACUGCC"}}}
{"variants_of": "B1", "test": "self-cleavage, relative activity (ratio to wild type); higher = more cleavage; in vitro, sequencing; the parent is a self-cleaving ribozyme"}
{"variant": "GGCAGAGCUCAACAAAGCGUGGCAAAGUGGCUGUGGCUUGACUGCC", "self-cleavage": 0.06}
{"variant": "GGCAGAGCUCAACUCAGCGUGGCAAAGUGGCUGAGGCUAGACUGCC", "self-cleavage": 0.82}
{"variant": "GGCAGAGCUCAACUCAGCGUGGCAAAGUGGCUGGGGCUAGACUGCC", "self-cleavage": 0.75}
{"variant": "GGCAGAGCUCAACUCAGCGUGGCAAAGUGGCUGCGGCUAGACUGCC", "self-cleavage": 0.17}
{"variant": "GGCAGAGCUCAACUCAGCGUGGCAAAGUGGCUGUGGCUAGACUUCC", "self-cleavage": 0.06}
{"variant": "GGCAGAGCUCAACUCAGCGUGGCAAAGUGGCUGUGGCUAGACUCCC", "self-cleavage": 0.2}
{"variant": "GGCAGAGCUCAACUCAGCGUGGCAAAGUGGCUGUGGCUAGACUACC", "self-cleavage": 0.13}
{"variant": "GGCAGAGCUCAACAAAGCGUGGCAAUGUGGCUGUGGCUAGACUGCC", "self-cleavage": 0.08}
{"variant": "GGCAGAGCUCAACAAAGCGUGGCAAGGUGGCUGUGGCUAGACUGCC", "self-cleavage": 0.06}
{"variant": "GGCAGAGCUCAACAAAGCGUGGCAACGUGGCUGUGGCUAGACUGCC", "self-cleavage": 0.08}
{"variant": "GGCAGAGCUCAACAAAGCGUGGCAAAGUGGCUGUGGCUAAACUGCC", "self-cleavage": 0.04}
{"variant": "GGCAGAGCUCAACAAAGCGUGGCAAAGUGGCUGUGGCUAUACUGCC", "self-cleavage": 0.06}
{"variant": "GGCAGAGCUCAACAAAGCGUGGCAAAGUGGCUGUGGCUACACUGCC", "self-cleavage": 0.07}
{"variant": "GGCAGAGCUCAACUCAGCGUGGCAAAGGGGCUGUGGCUAGACUGCC", "self-cleavage": 0.3}
{"variant": "GGCAGAGCUCAACUCAGCGUGGCAAAGAGGCUGUGGCUAGACUGCC", "self-cleavage": 0.14}
{"variant": "GGCAGAGCUCAACUCAGCGUGGCAAAGCGGCUGUGGCUAGACUGCC", "self-cleavage": 0.35}
{"variant": "GGCAGAGCUCAACAAAGCGUGACAAAGUGGCUGUGGCUAGACUGCC", "self-cleavage": 0.28}
{"variant": "GGCAGAGCUCAACAAAGCGUGCCAAAGUGGCUGUGGCUAGACUGCC", "self-cleavage": 0.06}
{"variant": "GGCAGAGCUCAACAAAGCGUGUCAAAGUGGCUGUGGCUAGACUGCC", "self-cleavage": 0.08}
{"variant": "GGCAGAGCUCAACAAAGAGUGGCAAAGUGGCUGUGGCUAGACUGCC", "self-cleavage": 0.04}
{"variant": "GGCAGAGCUCAACAAAGGGUGGCAAAGUGGCUGUGGCUAGACUGCC", "self-cleavage": 0.09}
{"variant": "GGCAGAGCUCAACAAAGUGUGGCAAAGUGGCUGUGGCUAGACUGCC", "self-cleavage": 0.14}
{"variant": "GGCAGAGCUCAACAAAGCGUGGCAAAGUGGCUGUGGCUAGACUGCU", "self-cleavage": 0.12}
{"variant": "GGCAGAGCUCAACAAAGCGUGGCAAAGUGGCUGUGGCUAGACUGCA", "self-cleavage": 0.09}
{"variant": "GGCAGAGCUCAACAAAGCGUGGCAAAGUGGCUGUGGCUAGACUGCG", "self-cleavage": 0.05}
{"variant": "GGCAGAGCUCAACAAAGCGUGGCAAAGUGGGUGUGGCUAGACUGCC", "self-cleavage": 0.03}
{"variant": "GGCAGAGCUCAACAAAGCGUGGCAAAGUGGUUGUGGCUAGACUGCC", "self-cleavage": 0.04}
{"variant": "GGCAGAGCUCAACAAAGCGUGGCAAAGUGGAUGUGGCUAGACUGCC", "self-cleavage": 0.05}
{"variant": "GGCAGAGCUCAACAAAGCGUGGCAAAGUGUCUGUGGCUAGACUGCC", "self-cleavage": 0.07}
{"variant": "GGCAGAGCUCAACAAAGCGUGGCAAAGUGCCUGUGGCUAGACUGCC", "self-cleavage": 0.05}
{"variant": "GGCAGAGCUCAACAAAGCGUGGCAAAGUGACUGUGGCUAGACUGCC", "self-cleavage": 0.06}
{"variant": "GGCAGAGCUCAACUCAGCGUGGCAAAGUGGCUGUGGCUAGACGGCC", "self-cleavage": 0.35}
{"variant": "GGCAGAGCUCAACUCAGCGUGGCAAAGUGGCUGUGGCUAGACCGCC", "self-cleavage": 0.07}
{"variant": "GGCAGAGCUCAACUCAGCGUGGCAAAGUGGCUGUGGCUAGACAGCC", "self-cleavage": 0.16}
{"variant": "GGCAGAGCUCAACAAAGCGUGGCAAAGUGGCUGUGGCUAGACUGCC", "self-cleavage": 0.1}
{"variant": "GGCAGAGCUCAACAAAGCGUGGCAAAGUGGCUCUGGCUAGACUGCC", "self-cleavage": 0.06}
{"variant": "GGCAGAGCUCAACAAAGCGUGGCAAAGUGGCUUUGGCUAGACUGCC", "self-cleavage": 1.81}
{"variant": "GGCAGAGCUCAACAAAGCGUGGCAAAGUGGCUAUGGCUAGACUGCC", "self-cleavage": 0.11}
{"variant": "GGCAGAGCUCAACUCAGCGUGGCAAAGUGGCUGUGGCUAUACUGCC", "self-cleavage": 0.11}
{"variant": "GGCAGAGCUCAACUCAGCGUGGCAAAGUGGCUGUGGCUAAACUGCC", "self-cleavage": 0.05}
{"variant": "GGCAGAGCUCAACUCAGCGUGGCAAAGUGGCUGUGGCUACACUGCC", "self-cleavage": 0.08}
{"variant": "GGCAGAGCUCAACAAAGCGUGGCAAAGUGGCUGUCGCUAGACUGCC", "self-cleavage": 0.05}
{"variant": "GGCAGAGCUCAACAAAGCGUGGCAAAGUGGCUGUAGCUAGACUGCC", "self-cleavage": 0.1}
{"variant": "GGCAGAGCUCAACAAAGCGUGGCAAAGUGGCUGUUGCUAGACUGCC", "self-cleavage": 0.08}
{"variant": "GGCAGAGCUCAACAAAGCGUGGCAAAGUGGCUGUGGCUAGACUACC", "self-cleavage": 0.08}
{"variant": "GGCAGAGCUCAACAAAGCGUGGCAAAGUGGCUGUGGCUAGACUCCC", "self-cleavage": 0.04}
{"variant": "GGCAGAGCUCAACAAAGCGUGGCAAAGUGGCUGUGGCUAGACUUCC", "self-cleavage": 0.04}
{"variant": "GGCAGAGCUCAACUCAGCGUGGCAAAGUGGCUGUCGCUAGACUGCC", "self-cleavage": 0.11}
{"variant": "GGCAGAGCUCAACUCAGCGUGGCAAAGUGGCUGUAGCUAGACUGCC", "self-cleavage": 0.16}
{"variant": "GGCAGAGCUCAACUCAGCGUGGCAAAGUGGCUGUUGCUAGACUGCC", "self-cleavage": 0.12}
{"variant": "GGCAGAGCUCAACAAAGCGUUGCAAAGUGGCUGUGGCUAGACUGCC", "self-cleavage": 0.12}
{"variant": "GGCAGAGCUCAACAAAGCGUCGCAAAGUGGCUGUGGCUAGACUGCC", "self-cleavage": 0.11}
{"variant": "GGCAGAGCUCAACAAAGCGUAGCAAAGUGGCUGUGGCUAGACUGCC", "self-cleavage": 0.16}
{"variant": "GGCAGAGCUCAACAAAGCGUGGCAAAGUGGCUGUGCCUAGACUGCC", "self-cleavage": 0.04}
{"variant": "GGCAGAGCUCAACAAAGCGUGGCAAAGUGGCUGUGACUAGACUGCC", "self-cleavage": 0.14}
{"variant": "GGCAGAGCUCAACAAAGCGUGGCAAAGUGGCUGUGUCUAGACUGCC", "self-cleavage": 0.06}
